Legend:
[1] = target: MC1R on B16-SIY cells (mouse) (UniProt Q01727); test: cell-based or functional assay
[2] = target: human MC1R on HEK293 cells that overexpress it (human) (UniProt Q01726); test: cell-based or functional assay
[3] = target: human MC1R on HEK293 cells that overexpress it (human) (UniProt Q01726); test: cell surface ELISA on fixed HEK293-MC1R cells
[4] = target: human PD-L1 (extracellular domain)-Fc fusion protein (human) (UniProt Q9NZQ7); test: ELISA, PD-L1-Fc coated, detection with HRP anti-human kappa light chain antibody
Chain of human PD-L1 (extracellular domain)-Fc fusion protein (human) (Q9NZQ7 19-238): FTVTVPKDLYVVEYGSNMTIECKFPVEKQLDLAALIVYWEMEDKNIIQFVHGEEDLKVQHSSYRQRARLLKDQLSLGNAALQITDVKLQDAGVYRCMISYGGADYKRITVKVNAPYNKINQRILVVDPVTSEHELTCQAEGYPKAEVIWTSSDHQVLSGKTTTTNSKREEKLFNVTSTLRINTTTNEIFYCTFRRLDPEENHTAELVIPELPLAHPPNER

[5] = target: human PD-L1 (extracellular domain)-Fc fusion protein (human) (UniProt Q9NZQ7); test: ELISA on human PD-L1 (extracellular domain)-Fc fusion protein

Chain of human MC1R on HEK293 cells that overexpress it (human) (Q01726 whole entry, the tested form may be a part): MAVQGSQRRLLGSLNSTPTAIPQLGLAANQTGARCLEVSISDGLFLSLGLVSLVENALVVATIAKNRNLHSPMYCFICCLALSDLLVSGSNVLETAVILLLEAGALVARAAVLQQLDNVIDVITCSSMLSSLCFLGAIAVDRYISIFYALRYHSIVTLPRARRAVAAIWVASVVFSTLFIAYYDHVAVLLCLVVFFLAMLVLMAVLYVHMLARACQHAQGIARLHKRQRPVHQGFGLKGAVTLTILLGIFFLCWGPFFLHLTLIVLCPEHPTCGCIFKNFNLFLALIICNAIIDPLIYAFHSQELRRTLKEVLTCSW
Chain of MC1R on B16-SIY cells (mouse) (Q01727 whole entry): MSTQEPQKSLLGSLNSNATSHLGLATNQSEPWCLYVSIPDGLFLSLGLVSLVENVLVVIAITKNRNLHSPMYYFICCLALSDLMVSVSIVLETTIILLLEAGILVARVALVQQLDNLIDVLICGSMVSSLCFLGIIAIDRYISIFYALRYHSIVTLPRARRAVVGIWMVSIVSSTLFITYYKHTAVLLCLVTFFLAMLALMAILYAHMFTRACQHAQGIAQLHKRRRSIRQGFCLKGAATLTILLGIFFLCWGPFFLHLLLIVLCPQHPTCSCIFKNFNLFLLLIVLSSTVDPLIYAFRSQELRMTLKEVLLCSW

| B16-SIY cells cAMP-Glo Assay, EC50 [1] | CRE-Luc reporter in HEK 293 cells overexpressing MC1R, EC50 [2] | EC50 [3] | EC50 [4] | EC50 [5] | Substance |
| --- | --- | --- | --- | --- | --- |
| 60 pM | – | – | – | – | NDP-MSH-Synagis (control antibody Synagis conjugated at the heavy chain N-terminal serine to H2NO-NDP-MSH) |
| 60 pM | 90 pM | – | – | – | NDP-MSH peptide ([Nle4, D-Phe7]-MSH) |
| – | 2700 pM | 1720 pM | 170 pM | – | NDP-MSH-αPD-L1 conjugate (Avelumab with NDP-MSH conjugated to lysines through BCN/PEG24, LAR about 3.5) (bispecific antibody) |
| 20 pM | – | – | – | 87 pM | NDP-MSH-αPD-L1 N-terminal conjugate (Atezolizumab with engineered heavy chain N-terminal serine and 8x(G4S) linker, oxime-ligated to H2NO-NDP-MSH, LAR 2) (bispecific antibody) |
